Source: patent US20240261333A1, “NOVEL TARGETS FOR ENHANCING ANTI-TUMOR IMMUNITY” (THE BROAD INSTITUTE, INC., priority 2021, published 2024)

Tests used:
[1] = molecular target: ABCD1 (human) (UniProt P33897); assay: IgG control IP from lysate of N-FLAG B3GNT2 cells, mass spectrometry
[2] = molecular target: EEF2 (human) (UniProt P13639); assay: as above
[3] = molecular target: HSP90AB1 (human) (UniProt P08238); assay: as above
[4] = molecular target: HDGFL2 (human) (UniProt Q7Z4V5); assay: as above
Chain of HDGFL2 (human) (Q7Z4V5 whole entry): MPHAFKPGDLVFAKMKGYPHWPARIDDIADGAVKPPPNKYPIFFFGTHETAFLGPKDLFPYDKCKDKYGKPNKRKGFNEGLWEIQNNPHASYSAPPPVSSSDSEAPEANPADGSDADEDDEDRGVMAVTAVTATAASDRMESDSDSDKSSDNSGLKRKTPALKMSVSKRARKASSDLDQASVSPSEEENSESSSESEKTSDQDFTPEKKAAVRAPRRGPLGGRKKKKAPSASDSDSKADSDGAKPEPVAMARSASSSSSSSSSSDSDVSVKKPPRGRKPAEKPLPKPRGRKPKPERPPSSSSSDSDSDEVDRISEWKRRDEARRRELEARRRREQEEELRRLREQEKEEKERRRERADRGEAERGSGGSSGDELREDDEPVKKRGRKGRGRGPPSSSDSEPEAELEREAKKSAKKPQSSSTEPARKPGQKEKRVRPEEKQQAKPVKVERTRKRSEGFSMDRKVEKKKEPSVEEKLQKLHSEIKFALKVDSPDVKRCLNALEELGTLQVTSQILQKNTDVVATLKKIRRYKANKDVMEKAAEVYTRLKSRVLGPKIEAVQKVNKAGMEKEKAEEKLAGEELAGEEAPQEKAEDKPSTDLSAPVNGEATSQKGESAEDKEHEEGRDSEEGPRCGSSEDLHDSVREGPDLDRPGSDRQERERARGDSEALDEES

[5] = molecular target: KTN1 (human) (UniProt Q86UP2); assay: as above
[6] = molecular target: DNAJA3 (human) (UniProt Q96EY1); assay: as above
Chain of DNAJA3 (human) (Q96EY1 other isoform, or with tags, fused parts or gaps limits assumed): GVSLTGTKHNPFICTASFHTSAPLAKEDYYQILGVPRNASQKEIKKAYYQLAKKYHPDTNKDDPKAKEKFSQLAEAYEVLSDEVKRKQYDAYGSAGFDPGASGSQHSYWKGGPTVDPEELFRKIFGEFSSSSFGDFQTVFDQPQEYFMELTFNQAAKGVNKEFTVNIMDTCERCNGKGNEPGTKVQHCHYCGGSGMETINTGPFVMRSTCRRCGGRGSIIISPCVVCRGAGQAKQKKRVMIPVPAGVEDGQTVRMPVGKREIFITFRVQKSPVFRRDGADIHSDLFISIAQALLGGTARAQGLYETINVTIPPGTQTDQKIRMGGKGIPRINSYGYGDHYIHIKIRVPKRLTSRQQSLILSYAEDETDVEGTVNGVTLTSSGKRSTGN

[7] = molecular target: STAU1 (human) (UniProt O95793); assay: as above
[8] = molecular target: UBTF (human) (UniProt P17480); assay: as above
[9] = molecular target: NTPCR (human) (UniProt Q9BSD7); assay: as above
[10] = molecular target: ERP29 (human) (UniProt P30040); assay: as above
[11] = molecular target: PDIA4 (human) (UniProt P13667); assay: as above
[12] = molecular target: RPL15 (human) (UniProt P61313); assay: as above
[13] = molecular target: ACSL3 (human) (UniProt O95573); assay: as above
Chain of ACSL3 (human) (O95573 whole entry): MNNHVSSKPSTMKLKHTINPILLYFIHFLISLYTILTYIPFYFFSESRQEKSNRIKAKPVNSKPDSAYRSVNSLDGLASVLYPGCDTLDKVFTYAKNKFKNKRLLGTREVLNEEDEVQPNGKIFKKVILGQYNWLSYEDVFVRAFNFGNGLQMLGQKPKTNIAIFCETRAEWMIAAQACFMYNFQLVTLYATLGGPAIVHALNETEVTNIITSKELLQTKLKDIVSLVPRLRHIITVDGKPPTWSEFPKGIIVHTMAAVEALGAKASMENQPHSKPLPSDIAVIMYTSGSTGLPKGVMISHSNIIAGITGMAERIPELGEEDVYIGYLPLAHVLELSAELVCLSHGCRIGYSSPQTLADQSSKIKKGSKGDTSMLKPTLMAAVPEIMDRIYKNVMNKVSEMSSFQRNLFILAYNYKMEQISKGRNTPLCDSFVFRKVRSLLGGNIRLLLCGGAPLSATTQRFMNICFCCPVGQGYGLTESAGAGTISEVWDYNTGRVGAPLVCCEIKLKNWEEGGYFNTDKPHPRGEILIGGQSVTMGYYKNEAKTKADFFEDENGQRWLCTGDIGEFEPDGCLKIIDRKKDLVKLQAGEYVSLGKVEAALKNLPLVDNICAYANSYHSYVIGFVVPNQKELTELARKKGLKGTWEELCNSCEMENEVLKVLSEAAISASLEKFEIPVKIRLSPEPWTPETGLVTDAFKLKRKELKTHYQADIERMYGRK

[14] = molecular target: TUBA1C (human) (UniProt Q9BQE3); assay: as above
[15] = molecular target: LARP4 (human) (UniProt Q71RC2); assay: as above
[16] = molecular target: ZRANB2 (human) (UniProt O95218); assay: as above
[17] = molecular target: P4HA2 (human) (UniProt O15460); assay: co-IP with IgG control, lysate of N-FLAG B3GNT2 cells, mass spectrometry
[18] = molecular target: LAMC1 (human) (UniProt P11047); assay: as above
[19] = molecular target: RPL17 (human) (UniProt P18621); assay: as above
[20] = molecular target: P0AA25.2 [thioredoxin: P0AA25]; assay: as above
[21] = molecular target: RUVBL2 (human) (UniProt Q9Y230); assay: as above
[22] = molecular target: RBM14 (human) (UniProt Q96PK6); assay: as above
[23] = molecular target: LUC7L3 (human) (UniProt O95232); assay: as above
[24] = molecular target: PLOD1 (human) (UniProt Q02809); assay: as above
[25] = molecular target: RPS20 (human) (UniProt P60866); assay: as above
[26] = molecular target: CLTC (human) (UniProt Q00610); assay: as above
[27] = molecular target: TM9SF1 (human) (UniProt O15321); assay: as above
Chain of TM9SF1 (human) (O15321 other isoform, or with tags, fused parts or gaps limits assumed): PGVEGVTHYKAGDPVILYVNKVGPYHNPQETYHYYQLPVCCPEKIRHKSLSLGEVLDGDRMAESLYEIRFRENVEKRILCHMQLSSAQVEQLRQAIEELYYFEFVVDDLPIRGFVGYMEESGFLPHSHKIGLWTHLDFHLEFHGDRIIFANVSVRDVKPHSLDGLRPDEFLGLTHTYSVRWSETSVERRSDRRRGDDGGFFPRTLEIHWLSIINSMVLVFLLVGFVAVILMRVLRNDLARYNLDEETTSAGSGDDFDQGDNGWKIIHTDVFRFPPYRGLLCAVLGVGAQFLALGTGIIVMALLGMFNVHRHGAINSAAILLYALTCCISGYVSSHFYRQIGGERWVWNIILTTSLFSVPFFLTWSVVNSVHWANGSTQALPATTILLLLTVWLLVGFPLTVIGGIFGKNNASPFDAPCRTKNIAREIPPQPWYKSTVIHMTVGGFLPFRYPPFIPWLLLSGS

[28] = molecular target: XPO1 (human) (UniProt O14980); assay: as above
Chain of XPO1 (human) (O14980 whole entry): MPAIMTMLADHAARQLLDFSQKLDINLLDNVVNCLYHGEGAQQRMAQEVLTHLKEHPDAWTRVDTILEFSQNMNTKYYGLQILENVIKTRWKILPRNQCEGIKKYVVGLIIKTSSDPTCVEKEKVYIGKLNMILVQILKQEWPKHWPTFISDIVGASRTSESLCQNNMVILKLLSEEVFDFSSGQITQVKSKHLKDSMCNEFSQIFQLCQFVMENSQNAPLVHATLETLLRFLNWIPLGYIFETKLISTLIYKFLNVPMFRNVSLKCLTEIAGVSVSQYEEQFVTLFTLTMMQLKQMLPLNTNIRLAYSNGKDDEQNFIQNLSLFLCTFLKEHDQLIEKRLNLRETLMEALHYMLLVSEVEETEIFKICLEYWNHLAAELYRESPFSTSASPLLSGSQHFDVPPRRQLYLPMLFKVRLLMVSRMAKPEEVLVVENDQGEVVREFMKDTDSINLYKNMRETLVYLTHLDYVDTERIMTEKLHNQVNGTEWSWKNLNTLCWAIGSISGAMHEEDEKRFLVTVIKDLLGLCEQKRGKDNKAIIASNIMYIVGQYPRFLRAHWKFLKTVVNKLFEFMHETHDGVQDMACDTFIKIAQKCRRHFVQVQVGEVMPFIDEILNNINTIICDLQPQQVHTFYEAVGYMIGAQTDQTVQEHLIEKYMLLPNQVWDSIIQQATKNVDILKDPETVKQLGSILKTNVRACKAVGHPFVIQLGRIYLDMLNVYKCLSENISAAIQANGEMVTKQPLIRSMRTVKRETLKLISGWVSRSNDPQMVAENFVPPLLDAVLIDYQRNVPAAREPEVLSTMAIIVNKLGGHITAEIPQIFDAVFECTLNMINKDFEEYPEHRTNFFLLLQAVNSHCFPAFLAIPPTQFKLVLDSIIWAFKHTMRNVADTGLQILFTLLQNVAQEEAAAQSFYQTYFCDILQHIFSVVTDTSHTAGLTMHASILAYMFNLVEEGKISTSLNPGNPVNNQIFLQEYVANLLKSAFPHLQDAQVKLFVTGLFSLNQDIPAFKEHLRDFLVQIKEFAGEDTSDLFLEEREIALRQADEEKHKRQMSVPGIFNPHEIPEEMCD

[29] = molecular target: PSMA3 (human) (UniProt P25788); assay: as above
[30] = molecular target: CPT1A (human) (UniProt P50416); assay: as above
Chain of CPT1A (human) (P50416 other isoform, or with tags, fused parts or gaps limits assumed): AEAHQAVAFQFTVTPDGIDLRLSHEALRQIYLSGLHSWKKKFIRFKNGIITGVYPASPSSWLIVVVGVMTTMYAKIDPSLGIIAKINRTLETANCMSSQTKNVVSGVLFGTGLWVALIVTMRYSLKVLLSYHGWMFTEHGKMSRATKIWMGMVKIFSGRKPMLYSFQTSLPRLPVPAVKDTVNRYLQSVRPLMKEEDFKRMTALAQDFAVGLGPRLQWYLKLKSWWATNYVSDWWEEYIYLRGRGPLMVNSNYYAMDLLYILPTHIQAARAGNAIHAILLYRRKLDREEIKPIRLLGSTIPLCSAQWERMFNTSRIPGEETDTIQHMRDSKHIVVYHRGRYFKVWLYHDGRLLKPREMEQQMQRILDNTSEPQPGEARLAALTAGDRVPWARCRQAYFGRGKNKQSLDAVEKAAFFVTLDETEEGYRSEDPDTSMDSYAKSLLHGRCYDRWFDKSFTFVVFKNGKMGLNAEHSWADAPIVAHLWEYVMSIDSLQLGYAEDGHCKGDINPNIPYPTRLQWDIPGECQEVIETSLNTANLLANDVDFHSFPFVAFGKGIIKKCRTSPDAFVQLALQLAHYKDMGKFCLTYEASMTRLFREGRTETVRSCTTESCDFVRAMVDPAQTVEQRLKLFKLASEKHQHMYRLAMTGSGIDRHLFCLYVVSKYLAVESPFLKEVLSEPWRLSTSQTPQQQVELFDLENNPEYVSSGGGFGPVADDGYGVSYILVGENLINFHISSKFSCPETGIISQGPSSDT

[31] = molecular target: RPL6 (human) (UniProt Q02878); assay: as above
[32] = molecular target: RPL7A (human) (UniProt P62424); assay: as above
[33] = molecular target: SPARC (human) (UniProt P09486); assay: as above
[34] = molecular target: ARPC1B (human) (UniProt O15143); assay: as above
[35] = molecular target: PRRC2C (human) (UniProt Q9Y520); assay: as above
[36] = molecular target: TPM2 (human) (UniProt P07951); assay: as above
[37] = molecular target: COPA (human) (UniProt P53621); assay: as above
[38] = molecular target: JUP (human) (UniProt P14923); assay: as above

Chain of ABCD1 (human) (P33897 whole entry): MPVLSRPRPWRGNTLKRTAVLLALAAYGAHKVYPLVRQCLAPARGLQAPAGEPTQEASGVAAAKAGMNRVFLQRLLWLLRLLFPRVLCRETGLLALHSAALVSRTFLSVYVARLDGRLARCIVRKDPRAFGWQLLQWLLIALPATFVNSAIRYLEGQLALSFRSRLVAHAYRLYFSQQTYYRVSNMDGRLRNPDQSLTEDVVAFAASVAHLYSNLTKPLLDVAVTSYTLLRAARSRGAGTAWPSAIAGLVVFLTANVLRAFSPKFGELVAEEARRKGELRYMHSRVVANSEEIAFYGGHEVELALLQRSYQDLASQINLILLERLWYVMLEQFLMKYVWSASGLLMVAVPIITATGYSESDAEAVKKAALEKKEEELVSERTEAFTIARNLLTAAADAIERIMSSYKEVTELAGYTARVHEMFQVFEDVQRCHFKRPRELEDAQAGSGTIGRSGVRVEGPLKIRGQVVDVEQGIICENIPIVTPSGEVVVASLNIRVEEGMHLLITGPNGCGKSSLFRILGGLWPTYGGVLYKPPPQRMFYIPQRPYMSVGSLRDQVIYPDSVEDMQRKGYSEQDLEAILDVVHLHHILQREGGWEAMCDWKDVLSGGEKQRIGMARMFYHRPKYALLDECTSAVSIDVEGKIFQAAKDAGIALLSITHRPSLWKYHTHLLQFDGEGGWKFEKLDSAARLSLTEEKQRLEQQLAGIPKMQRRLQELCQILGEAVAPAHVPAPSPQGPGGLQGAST

IgG control (Millipore Sigma 12-371) (antibody)
co-IP mass spectrometry count [1]: 0
co-IP mass spectrometry count [2]: 0
co-IP mass spectrometry count [3]: 0
co-IP mass spectrometry count [4]: 0
co-IP mass spectrometry count [5]: 0
co-IP mass spectrometry count [6]: 0
co-IP mass spectrometry count [7]: 0
co-IP mass spectrometry count [8]: 0
co-IP mass spectrometry count [9]: 0
co-IP mass spectrometry count [10]: 0
co-IP mass spectrometry count [11]: 0
co-IP mass spectrometry count [12]: 0
co-IP mass spectrometry count [13]: 0
co-IP mass spectrometry count [14]: 8
co-IP mass spectrometry count [15]: 0
co-IP mass spectrometry count [16]: 0
co-IP/MS count, N-term IgG [17]: 0
co-IP/MS count, N-term IgG [18]: 0
co-IP/MS count, N-term IgG [19]: 0
co-IP/MS count, N-term IgG [20]: 3
co-IP/MS count, N-term IgG [21]: 0
co-IP/MS count, N-term IgG [22]: 4
co-IP/MS count, N-term IgG [23]: 2
co-IP/MS count, N-term IgG [24]: 0
co-IP/MS count, N-term IgG [25]: 4
co-IP/MS count, N-term IgG [26]: 6
co-IP/MS count, N-term IgG [27]: 0
co-IP/MS count, N-term IgG [28]: 0
co-IP/MS count, N-term IgG [29]: 0
co-IP/MS count, N-term IgG [30]: 0
co-IP/MS count, N-term IgG [31]: 5
co-IP/MS count, N-term IgG [32]: 4
co-IP/MS count, N-term IgG [33]: 0
co-IP/MS count, N-term IgG [34]: 2
co-IP/MS count, N-term IgG [35]: 11
co-IP/MS count, N-term IgG [36]: 0
co-IP/MS count, N-term IgG [37]: 0
co-IP/MS count, N-term IgG [38]: 39
